Test results from patent US20210380679A1 (INHIBRX BIOSCIENCES, published 2021).
Values belong to the binder of their own block, whether it stands above or below them.

What was measured:
[1] = biological target: T1, CD3 on the surface of T cells (human, UniProt P07766 23-207); experiment: flow cytometry, construct titrated on isolated primary T cells, fluorophore-conjugated anti-human IgG Fc secondary
T1 construct: whole, on cells; multi-chain complex; also called CD3 epsilon
Protocol: (§1) Binding of exemplary multispecific polypeptide constructs of the disclosure containing an antigen-binding domain directed against DLL3 to CD3 on the surface of primary T cells and to DLL3 expressing cells (SHP-77) was assessed by flow cytometry. […] These binding assays were conducted by flow cytometry, wherein bound constructs were detected using a fluorophore-conjugated anti-human IgG Fc secondary antibody.

[2] = biological target: T2, human DLL3 (Delta-like ligand 3) (human, UniProt Q9NYJ7 27-618); experiment: flow cytometry, construct titrated on SHP-77 cells (DLL3 positive), fluorophore-conjugated anti-human IgG Fc secondary
T2 construct: endogenous on SHP-77 cells; also called cell-surface DLL3
T2 sequence: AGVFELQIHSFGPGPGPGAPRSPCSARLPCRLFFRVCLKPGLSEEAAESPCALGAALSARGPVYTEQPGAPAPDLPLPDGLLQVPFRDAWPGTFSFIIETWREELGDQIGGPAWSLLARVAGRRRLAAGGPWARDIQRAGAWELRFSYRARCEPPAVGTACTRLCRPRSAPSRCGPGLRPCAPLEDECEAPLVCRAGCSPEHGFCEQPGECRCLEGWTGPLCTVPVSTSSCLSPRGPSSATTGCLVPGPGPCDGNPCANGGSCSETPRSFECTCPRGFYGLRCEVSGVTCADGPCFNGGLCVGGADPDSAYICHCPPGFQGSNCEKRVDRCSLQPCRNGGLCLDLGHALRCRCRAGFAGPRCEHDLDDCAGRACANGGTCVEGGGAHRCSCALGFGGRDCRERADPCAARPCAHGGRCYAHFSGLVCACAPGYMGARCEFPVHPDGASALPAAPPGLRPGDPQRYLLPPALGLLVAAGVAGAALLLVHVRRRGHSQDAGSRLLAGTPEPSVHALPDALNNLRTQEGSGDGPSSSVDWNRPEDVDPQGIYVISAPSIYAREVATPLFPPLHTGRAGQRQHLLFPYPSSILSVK
Protocol: as §1

[3] = biological target: T1, CD3 on the surface of T cells; experiment: flow cytometry, primary human T cells
Protocol: (§2) Binding of exemplary DLL3-targeting constrained CD3 engaging constructs of the disclosure, referred to herein as cx4720, cx3715, cx4422, cx3708, cx4052, cx3985, cx4059, cx4087, cx4088, cx4895, cx3991, cx3711, cx4887, cx4896, cx4899, cx4406, cx3707, cx3710, cx4888 and cx4890, to CD3 on the surface of primary T cells was assessed via flow cytometry (SONY SA3800 spectral analyzer) using T-cell that were negatively enriched from PBMCs isolated from healthy human donor leukopaks. Representative DLL3-targeting constrained CD3 engaging constructs were assessed for binding to T cells and DLL3 expressing cells (SHP-77). Bound cx4720, cx3715, cx4422, cx3708, cx4052, cx3985, cx4059, cx4087, cx4088, cx4895, cx3991, cx3711, cx4887, cx4896, cx4899, cx4406, cx3707, cx3710, cx4888 and cx4890 was detected with fluorophore-conjugated secondary antibodies specific for the human Fc and binding was measured by flow cytometry. Cells incubated with secondary antibody only served as negative controls.
(§3) Table E4 summarizes the affinity of exemplary molecules for DLL3 or CD3, as determined from flow cytometry, in these studies.

[4] = biological target: T2, human DLL3 (Delta-like ligand 3); experiment: flow cytometry, SHP-77 cells
Protocol: as §2, §3

T1 sequence (P07766 23-207): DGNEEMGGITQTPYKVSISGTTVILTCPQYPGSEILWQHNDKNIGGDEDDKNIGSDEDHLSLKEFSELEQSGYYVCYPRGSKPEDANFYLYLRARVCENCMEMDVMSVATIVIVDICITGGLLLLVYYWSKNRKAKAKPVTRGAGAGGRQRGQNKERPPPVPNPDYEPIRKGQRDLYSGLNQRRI

B2: cx5800 (bispecific antibody)
chain 1: EVQLVESGGGEVQPGGSLRLSCAASGSIFSINAMGWYRQAPGKQRELVAGFTGDTNTIYAESVKGRFTISRDNAKNTVYLQMSSLRAEDTAVYYCAADVQLFSRDYEFYWGQGTLVTVKPDKTHTCPPCPAPGGPSVFLFPPKPKDTLMISRTPEVTCVVVDVSHEDPEVKFNWYVDGVEVHNAKTKPREEQYNSTYRVVSVLTVLHQDWLNGKEYKCKVSNKALPAPIEKTISKAKGQPREPQVYTLPPCRDELTKNQVSLWCLVKGFYPSDIAVEWESNGQPENNYKTTPPVLDSDGSFFLYSKLTVDKSRWQQGNVFSCSVMHEALHNHYTQKSLSLSPTGGGGGSGGGGGSGGGGGSEVQLVESGGGLVQPGGSLRLSCAASGFTFNTYAMNWVRQAPGKCLEWVARIRSKYNNYATYYADSVKGRFTISRDDAKNTLYLQMSSLRAEDTAVYYCVRHGNFGNSYVSWFAYWGQGTLVTVKP
chain 2: DKTHTCPPCPAPGGPSVFLFPPKPKDTLMISRTPEVTCVVVDVSHEDPEVKFNWYVDGVEVHNAKTKPREEQYNSTYRVVSVLTVLHQDWLNGKEYKCKVSNKALPAPIEKTISKAKGQPREPQVCTLPPSRDELTKNQVSLSCAVKGFYPSDIAVEWESNGQPENNYKTTPPVLDSDGSFFLVSKLTVDKSRWQQGNVFSCSVMHEALHNRYTQKSLSLSPTGGGGGSGGGGGSGGGGGSQAVVTQEPSLTVSPGGTVTLTCGSSTGAVTTSNYANWVQQKPGQAFRGLIGGTNKRAPGVPARFSGSLLGGKAALTISGAQPEDEADYYCALWYSNHWVFGCGTKLEIKEVQLLESGGGEVQPGGSLRLSCAASGFSFSINAMGWYRQAPGKRREFVAAIESGRNTVYAESVKGRFTISRDNAKNTVYLQMSSLRAEDTAVYYCGLLKGNRVVSPSVAYWGQGTLVTVKP
notes: monovalent for DLL3; junction linkers not placed
- binding result [1]: no binding (tested: about 67 nM)
- binding result [2]: binds

B4: cx4890 (bispecific antibody)
chain 1: EVQLVQSGGGLVQAGGSLRLSCAASGSILSINAMGWYRQPPGKQREMVAGFTGDGNTIYADSVKGRFTISRDNAKNTVYLQMNSLKPEDTAVYYCAADVQLFSRDYEFYWGQGTQVTVKPDKTHTCPPCPAPGGPSVFLFPPKPKDTLMISRTPEVTCVVVDVSHEDPEVKFNWYVDGVEVHNAKTKPREEQYNSTYRVVSVLTVLHQDWLNGKEYKCKVSNKALPAPIEKTISKAKGQPREPQVYTLPPCRDELTKNQVSLWCLVKGFYPSDIAVEWESNGQPENNYKTTPPVLDSDGSFFLYSKLTVDKSRWQQGNVFSCSVMHEALHNHYTQKSLSLSPTGGGGGSGGGGGSGGGGGSEVQLVESGGGLVQPGGSLRLSCAASGFTFNTYAMNWVRQAPGKCLEWVARIRSKYNNYATYYADSVKGRFTISRDDAKNTLYLQMSSLRAEDTAVYYCVRHGNFGNSYVSWFAYWGQGTLVTVKPEVQLQESGGGLVQAGGSLRLSCGPSEIITSDKSVGWWRQAPGKQRNLVAGISNVGSTNYAQSVKGRFTISRDNAKNTLFLQMNSLKPEDTAVYYCYARDFENEYWGRGTQVTVKP
chain 2: DKTHTCPPCPAPGGPSVFLFPPKPKDTLMISRTPEVTCVVVDVSHEDPEVKFNWYVDGVEVHNAKTKPREEQYNSTYRVVSVLTVLHQDWLNGKEYKCKVSNKALPAPIEKTISKAKGQPREPQVCTLPPSRDELTKNQVSLSCAVKGFYPSDIAVEWESNGQPENNYKTTPPVLDSDGSFFLVSKLTVDKSRWQQGNVFSCSVMHEALHNRYTQKSLSLSPTGGGGGSGGGGGSGGGGGSQAVVTQEPSLTVSPGGTVTLTCGSSTGAVTTSNYANWVQQKPGQAFRGLIGGTNKRAPGVPARFSGSLLGGKAALTISGAQPEDEADYYCALWYSNHWVFGCGTKLEIK
- Kd [3]: > 200 nM
- Kd [4]: 0.062 nM

B5: cx4899 (bispecific antibody)
chain 1: EVQLVESGGGEVQPGGSLRLSCGPSEIITSDKSVGWWRQAPGKQRNLVAGISNVGSTNYAQSVKGRFTISRDNAKNTLYLQMSSLRAEDTAVYYCYARDFENEYWGQGTLVTVKPDKTHTCPPCPAPGGPSVFLFPPKPKDTLMISRTPEVTCVVVDVSHEDPEVKFNWYVDGVEVHNAKTKPREEQYNSTYRVVSVLTVLHQDWLNGKEYKCKVSNKALPAPIEKTISKAKGQPREPQVYTLPPCRDELTKNQVSLWCLVKGFYPSDIAVEWESNGQPENNYKTTPPVLDSDGSFFLYSKLTVDKSRWQQGNVFSCSVMHEALHNHYTQKSLSLSPTGGGGGSGGGGGSGGGGGSEVQLVESGGGLVQPGGSLRLSCAASGFTFNTYAMNWVRQAPGKCLEWVARIRSKYNNYATYYADSVKGRFTISRDDAKNTLYLQMSSLRAEDTAVYYCVRHGNFGNSYVSWFAYWGQGTLVTVKPEVQLVESGGGEVQPGGSLRLSCAASGSIFSINAMGWYRQAPGKQRELVAGFTGDTNTIYAESVKGRFTISRDNAKNTVYLQMSSLRAEDTAVYYCAADVQLFSRDYEFYWGQGTLVTVKP
chain 2: B4 chain 2
- Kd [3]: > 200 nM
- Kd [4]: 0.397 nM

Second part, the binder after the results:

- binding result [1]: no binding (tested: about 67 nM)
- binding result [2]: binds
B1: cx5352 (bispecific antibody)
chain 1: EVQLVESGGGEVQPGGSLRLSCAASGSIFSINAMGWYRQAPGKQRELVAGFTGDTNTIYAESVKGRFTISRDNAKNTVYLQMSSLRAEDTAVYYCAADVQLFSRDYEFYWGQGTLVTVKPDKTHTCPPCPAPGGPSVFLFPPKPKDTLMISRTPEVTCVVVDVSHEDPEVKFNWYVDGVEVHNAKTKPREEQYNSTYRVVSVLTVLHQDWLNGKEYKCKVSNKALPAPIEKTISKAKGQPREPQVYTLPPCRDELTKNQVSLWCLVKGFYPSDIAVEWESNGQPENNYKTTPPVLDSDGSFFLYSKLTVDKSRWQQGNVFSCSVMHEALHNHYTQKSLSLSPTGGGGGSGGGGGSGGGGGSEVQLVESGGGLVQPGGSLRLSCAASGFTFNTYAMNWVRQAPGKCLEWVARIRSKYNNYATYYADSVKGRFTISRDDAKNTLYLQMSSLRAEDTAVYYCVRHGNFGNSYVSWFAYWGQGTLVTVKPEVQLVESGGGEVQPGGSLRLSCGPSEIITSDKSMGWVRQAPGKQRNLVAGISNVGSTNYAQSVKGRFTISRDNAKNTVYLQMSSLRAEDTAVYYCYARDFENEYWGQGTLVTVKP
chain 2: B2 chain 2

- Kd [3]: > 200 nM
- Kd [4]: 0.065 nM
B3: cx4895 (bispecific antibody)
chain 1: B4 chain 1
chain 2: B2 chain 2
notes: as printed the same parts as cx4720
